Assay results taken from patent US20110002926A1 (MEDICAL RESEARCH COUNCIL, published 2011).
Read-outs that look alike come from different tables or passages of the source. Where no end group is shown, it is not given here.

Assays:
[1] = molecular target: HCV E1E2 glycoproteins of genotype 2a JFH1 on HCVpp (Hepatitis C virus genotype 2a, UniProt Q99IB8 384-750; Q99IB8 192-383); assay: cell-based or functional assay
[2] = molecular target: HCV E1E2 glycoproteins of genotype 3a F4/2-35 on HCVpp (Hepatitis C virus genotype 3a); assay: cell-based or functional assay
[3] = molecular target: HCV E1E2 glycoproteins of isolate 2A2.4 on HCVpp (Hepatitis C virus genotype 2); assay: cell-based or functional assay
[4] = molecular target: HCV E1E2 glycoproteins of isolate 4.21.16 on HCVpp (Hepatitis C virus genotype 4); assay: cell-based or functional assay
[5] = molecular target: HCV E1E2 glycoproteins of isolate 6.5.8 on HCVpp (Hepatitis C virus genotype 6); assay: cell-based or functional assay
[6] = molecular target: HCV E1E2 glycoproteins of isolate 1A20.8 on HCVpp (Hepatitis C virus genotype 1); assay: cell-based or functional assay
[7] = molecular target: HCV E1E2 glycoproteins of isolate 1B5.23 on HCVpp (Hepatitis C virus genotype 1); assay: cell-based or functional assay
[8] = molecular target: HCV E1E2 glycoproteins of isolate 2B1.1 on HCVpp (Hepatitis C virus genotype 2); assay: cell-based or functional assay
[9] = molecular target: HCV E1E2 glycoproteins of isolate 5.15.11 on HCVpp (Hepatitis C virus genotype 5); assay: cell-based or functional assay
[10] = molecular target: T1, Peptide D3 (also: C-terminal linker GSGK-biotin, biotin attachment not given here); assay: peptide ELISA, signal as percent of maximum H6 binding
T1 peptide: QLINTNGSWHINGSGK

[11] = molecular target: T2, E2 peptide B1 (not fully specified (residue 16, C-terminus); also: biotin at C-terminal GSGK, site not given here); assay: as above
T2 peptide: NLINTNGSWHINGSGK

[12] = molecular target: T3, peptide H6 (AP33 mimotope) (not fully specified (residue 16, C-terminus); printed as VELRNLGGTWRPGSGK-biotin; also: biotin at C-terminal GSGK, site not given here); assay: peptide ELISA, biotinylated peptide on streptavidin, COS7 supernatant, OD 655 nm
T3 construct: Mimotope for AP33 identified by phage display; captured on streptavidin plates; also called mimotope H6; H6 mimotope
T3 peptide: VELRNLGGTWRPGSGK

[13] = molecular target: T1, Peptide D3; assay: as above
[14] = molecular target: T3, peptide H6 (AP33 mimotope); assay: as above
[15] = molecular target: T1, Peptide D3; assay: as above
[16] = molecular target: T3, peptide H6 (AP33 mimotope); assay: as above
[17] = molecular target: T2, E2 peptide B1; assay: as above
[18] = molecular target: T3, peptide H6 (AP33 mimotope); assay: as above
[19] = molecular target: T2, E2 peptide B1; assay: as above
[20] = molecular target: T2, E2 peptide B1; assay: as above

Sequence of HCV E1E2 glycoproteins of genotype 2a JFH1 on HCVpp (Q99IB8 384-750 limits assumed, chain 1 of 2): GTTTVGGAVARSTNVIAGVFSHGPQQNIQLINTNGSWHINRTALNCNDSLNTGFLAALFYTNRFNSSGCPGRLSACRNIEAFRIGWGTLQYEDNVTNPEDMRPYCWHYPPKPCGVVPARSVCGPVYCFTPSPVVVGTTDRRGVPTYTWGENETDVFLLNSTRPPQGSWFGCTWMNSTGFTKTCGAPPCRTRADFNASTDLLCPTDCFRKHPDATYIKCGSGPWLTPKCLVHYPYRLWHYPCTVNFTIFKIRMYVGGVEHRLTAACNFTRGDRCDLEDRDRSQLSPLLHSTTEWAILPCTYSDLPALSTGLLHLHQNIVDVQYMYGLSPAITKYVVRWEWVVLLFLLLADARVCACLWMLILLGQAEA
Sequence of HCV E1E2 glycoproteins of genotype 2a JFH1 on HCVpp (Q99IB8 192-383 limits assumed, chain 2 of 2): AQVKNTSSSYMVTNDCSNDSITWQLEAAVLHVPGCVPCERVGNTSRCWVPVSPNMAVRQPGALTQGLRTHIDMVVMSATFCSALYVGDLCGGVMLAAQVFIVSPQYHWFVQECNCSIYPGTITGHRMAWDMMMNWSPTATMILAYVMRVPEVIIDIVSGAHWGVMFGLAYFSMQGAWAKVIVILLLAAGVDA

B1: chimeric AP33 antibody (Vh/Vl) (antibody, V domains shown)
VH: EVQLQESGPSLVKPSQTLSLTCSVTGDSITSGYWNWIRKFPGNKLEYMGYISYSGSTYYNLSLRSRISITRDTSKNQYYLQLNSVTTEDTATYYCALITTTTYAMDYWGQGTSVTVS
VL: NIVLTQSPVSLAVSLGQRATISCRASESVDGYGNSFLHWFQQKPGQPPKLLIYLASNLNSGVPARFSGSGSRTDFTLTIDPVEADDAATYYCQQNNVDPWTFGGGTKLEIK
notes: also called chimeric antibody
IC50 of HCVpp infection of Huh-7 cells (luciferase) [1]: 1.1 µg/mL | IC90 of HCVpp infection of Huh-7 cells (luciferase) [1]: 9.31 µg/mL | IC50 of HCVpp infection of Huh-7 cells (luciferase) [2]: 0.48 µg/mL | IC90 of HCVpp infection of Huh-7 cells (luciferase) [2]: 3.2 µg/mL | IC50 of HCVpp infection of Huh-7 cells (luciferase) [3]: 0.88 µg/mL | IC90 of HCVpp infection of Huh-7 cells (luciferase) [3]: 6.67 µg/mL | IC50 of HCVpp infection of Huh-7 cells (luciferase) [4]: < 0.137 µg/mL | IC90 of HCVpp infection of Huh-7 cells (luciferase) [4]: 0.83 µg/mL | IC50 of HCVpp infection of Huh-7 cells (luciferase) [5]: < 0.137 µg/mL | IC90 of HCVpp infection of Huh-7 cells (luciferase) [5]: 3.7 µg/mL | IC50 of HCVpp infection of Huh-7 cells (luciferase) [6]: 1.1 µg/mL | IC90 of HCVpp infection of Huh-7 cells (luciferase) [6]: 11.5 µg/mL | IC50 of HCVpp infection of Huh-7 cells (luciferase) [7]: 1.15 µg/mL | IC90 of HCVpp infection of Huh-7 cells (luciferase) [7]: 11 µg/mL | IC50 of HCVpp infection of Huh-7 cells (luciferase) [8]: 3 µg/mL | IC90 of HCVpp infection of Huh-7 cells (luciferase) [8]: > 15 µg/mL | IC50 of HCVpp infection of Huh-7 cells (luciferase) [9]: 0.088 µg/mL | IC90 of HCVpp infection of Huh-7 cells (luciferase) [9]: 1.11 µg/mL | EC50 (read off the curve) [10]: ~0.02 µg/mL

B2: humanized AP33 antibody RHb-h/RK2bc (antibody, V domains shown)
VH: QVQLQESGPGLVKPSETLSLTCTVSGDSITSGYWNWIRQPPGRALEYMGYISYSGSTYYNLSLRSRITISRDTSKNQYSLRLSSVTAADTAMYYCALITTTTYAMDYWGQGTTVTVS
VL: EIVLTQSPSSLSASVGDRVTITCRASESVDGYGNSFLHWFQQKPGKAPKLLIYLASNLNSGVPSRFSGSGSRTDFTLTISSLQPEDFATYYCQQNNVDPWTFGQGTKLEIK
notes: also called RHbcdefgh/RK2bc; RHb-h standard
binding result [11]: no binding (tested: at least about 500 ng/ml) | EC50 (read off the curve) [12]: ~0.04 µg/mL | EC50 (read off the curve) [13]: ~0.05 µg/mL | EC50 (read off the curve) [14]: ~0.04 µg/mL

B3: humanized AP33 antibody RH-H/RK2bc (antibody, V domains shown)
VH: QVQLQESGPGLVKPSETLSLTCTVSGDSITSGYWNWIRQPPGRALEYMGYISYSGSTYYNLSLRSRITISRDTSKNQYSLRLSSVTAADTAMYYCARITTTTYAMDYWGQGTTVTVS
VL: EIVLTQSPSSLSASVGDRVTITCRASESVDGYGNSFLHWFQQKPGKAPKLLIYLASNLNSGVPSRFSGSGSRTDFTLTISSLQPEDFATYYCQQNNVDPWTFGQGTKLEIK
notes: also called RH-H (peptide ELISA, paired with RK2bc)
binding result [11]: no binding (tested: at least about 500 ng/ml) | EC50 (read off the curve) [15]: ~0.04 µg/mL | EC50 (read off the curve) [16]: ~0.03 µg/mL

B4: AP33 RH-E/RK2bc (antibody, V domains shown)
VH: QVQLQESGPGLVKPSETLSLTCTVSGDSITSGYWNWIRQPPGRALEYMGYISYSGSTYYNLSLRSRVTISRDTSKNQYSLRLSSVTAADTAMYYCALITTTTYAMDYWGQGTTVTVS
VL: EIVLTQSPSSLSASVGDRVTITCRASESVDGYGNSFLHWFQQKPGKAPKLLIYLASNLNSGVPSRFSGSGSRTDFTLTISSLQPEDFATYYCQQNNVDPWTFGQGTKLEIK
binding result [17]: no binding (tested: about 800 ng/ml)

B5: humanized AP33 antibody RH-G/RK2bc (antibody, V domains shown)
VH: QVQLQESGPGLVKPSETLSLTCTVSGDSITSGYWNWIRQPPGRALEYMGYISYSGSTYYNLSLRSRITISRDTSKNQFSLRLSSVTAADTAMYYCALITTTTYAMDYWGQGTTVTVS
VL: EIVLTQSPSSLSASVGDRVTITCRASESVDGYGNSFLHWFQQKPGKAPKLLIYLASNLNSGVPSRFSGSGSRTDFTLTISSLQPEDFATYYCQQNNVDPWTFGQGTKLEIK
EC50 (read off the curve) [18]: ~0.03 µg/mL | binding result [19]: no binding (tested: about 700 ng/ml)

B6: humanized AP33 antibody RH-F/RK2bc (antibody, V domains shown)
VH: QVQLQESGPGLVKPSETLSLTCTVSGDSITSGYWNWIRQPPGRALEYMGYISYSGSTYYNLSLRSRITISVDTSKNQYSLRLSSVTAADTAMYYCALITTTTYAMDYWGQGTTVTVS
VL: EIVLTQSPSSLSASVGDRVTITCRASESVDGYGNSFLHWFQQKPGKAPKLLIYLASNLNSGVPSRFSGSGSRTDFTLTISSLQPEDFATYYCQQNNVDPWTFGQGTKLEIK
binding result [20]: no binding (tested: about 500 ng/ml)
